Earlier results in US12498364B2, “Use of soluble urokinase plasminogen activator receptor levels to indicate prevention of cardiovascular disease with a statin” (The Regents of the University of Michigan, priority 2019, dated 2025).
“Also recorded” adds a separate entry of the source.

Assays:
interleukin 1β = biological target: T1, interleukin 1β (Homo sapiens, UniProt P01584); settings: patients with heart disease and hs-CRP>2.0 mg/L; cited from earlier work
T1 construct: host or cells: patients (in vivo, endogenous cytokine)

[1] = cited from earlier work

| Compound | hs-CRP compared to placebo (interleukin 1β) | rate of cardiovascular events compared to placebo (interleukin 1β) | incidence of the primary outcome ([1]; overall study, HFpEF) | incidence of cardiovascular events compared to placebo ([1]; post-hoc, North American patients) |
| --- | --- | --- | --- | --- |
| canakinumab | reduction in hs-CRP | lower rate of cardiovascular events; also recorded: reduced risk of adverse cardiovascular events | – | – |
| CC(=O)S[C@@H]1CC2=CC(=O)CC[C@]2(C)[C@H]2CC[C@@]3(C)[C@@H](CC[C@@]34CCC(=O)O4)[C@H]12 [spironolactone] | – | – | did not decrease the incidence of the primary outcome | lower incidence of cardiovascular events |
